Source: patent publication US20150064714A1, “Polypeptides containing a modified fragment of the peptide IF1” (LIFESEARCH, priority 2013, published 2015)
No end group written: not given here. *: point of attachment. MTSL = spin label, CC1(C)C=C(CS*)C(C)(C)N1[O]

Legend:
[1] = tested on: F1-ATPase or SMP (F0F1-ATPase); assay: Measurement of the affinity of a labelled polypeptide for the ATPase (kinetics of inhibition of ATP hydrolysis, NADH disappearance at 340 nm); format: biochemical; conditions: kinetic results; 25° C., pH 6.5; polypeptide 15 nM to 2 μM
Protocol: The hydrolysis of ATP by F1-ATPase or SMP (F0F1-ATPase) was measured according to the reaction illustrated below by following the disappearance of NADH over time at 340 nm.
This reaction is carried out in a thermostatically controlled vessel (25° C.) in which the reaction medium pH 6.5 (50 mM MES, 20 mM KCl, 1 mM MgCl2, 0.4 mM NADH, 1 mM PEP, 20 units/mL pyruvate kinase and 50 unit/mL lactate dehydrogenase) is stirred. In the case of measurement of hydrolysis of ATP by the SMPs, the vessel also contains 3 μM antimycin and 3 μM FCCP.
After recording for 2 to 4 minutes, a labelled polypeptide of the invention is injected into the measurement vessel at a concentration range of 15 nM to 2 μM and the ATPase activity decreases. The recordings are analysed and adjusted with a decreasing monoexponential function (equation 1 shown below) corresponding to the decline in the ATPase activity.
By plotting the values of kapp obtained as a function of the concentration of IF1, the formation rate constant (kon) and dissociation rate constant (koff) of the inhibited complex F1ATPase/IF1 are determined according to the following equation: kapp=kon[I]+koff
The relationship between the ratio V(I)/V(0) and the concentration of labelled polypeptide of the invention are linked according to the following equation:
V(I)/V(0)=Vr+(1−Vr)/(1+[I]/k1),
in which Vr is the fraction of V0 insensitive to IF1 inhibition.

[2] = target: ATPase (Homo sapiens, UniProt P06576+P25705); conditions: fragment of IF1 of less than 34 amino acids in a fusion protein; cited from earlier work
[3] = target: F1-ATPase (Bos taurus, UniProt P00829+P19483); conditions: point mutations of bovine IF1; cited from earlier work

## SEQ ID NO: 25: cysteine-containing peptide: cysteine inserted into the median region of SEQ ID NO: 9, for labelling with the spin label MTSL (SEDSFVKRARATEDWFVRQREKEC(MTSL)QLRHLKEQLEKQRKK)
[1]
  affinity for ATP synthase compared to that of natural IF1: better affinity for ATP synthase

## fragment constituted by amino acid 14 to amino acid 46 of IF1: fragment of the protein IF1 in a fusion protein of US 2004/0072739 (AVRDAGGAFGKREQAEEERYFRARAKEQLAALK; UniProt P01096 39-71, looked up, fragment)
[2]
  ATPase inhibiting activity: better ATPase inhibiting activity

B1: Y33W: modified bovine IF1 containing the point mutation Y33W (Bason et al.) (protein, UniProt P01096 26-109, looked up, variant Y33W)
ATPase inhibitor, …: GSESGDNVRSSAGAVRDAGGAFGKREQAEEERWFRARAKEQLAALKKHHENEISHHAKEIERLQKEIERHKQSIKKLKQSEDDD
[3]
  affinity for F1-ATPase compared to the natural bovine IF1: better affinity
